For assay [1], the target named is T1, DLL4 ECD/His tag (R&D 1506-D4-050) (UniProt Q9NR61 27-529).
T1 construct: extracellular domain; Bought antigen coated on the ELISA plate; not shown: His tag
As to the kind of experiment: direct bind ELISA, DLL4 on plate; DLL4 VD C-term.; HC Long, LC Long. Background: In an ELISA, binding on a coated surface is turned into a signal by an enzyme label.

Assay [2] addresses T1, DLL4 ECD/His tag (R&D 1506-D4-050). As to the kind of experiment: direct bind ELISA, DLL4 on plate; DLL4 VD C-term.; HC Long, LC Short.
Assay [3] concerns the target T2, human DLL4 extracellular domain (human, UniProt Q9NR61 27-529, biotin label in the Notch-1 competition ELISA (sites not given)). As to the kind of experiment: cell-based or functional assay.
Assay [4] addresses T2, human DLL4 extracellular domain. As to the kind of experiment: competition ELISA: 14 nM biotin-labelled human DLL4 ECD pre-mixed with DVD-Ig, then on coated human Notch-1 (competitor Notch-1).
Assay [5] has as its target T3, human DLL4 on 293G-human DLL4 cells (human, UniProt Q9NR61 27-685).
T3 construct: whole, on cells; no method paragraph describes this FACS assay
As to the kind of experiment: FACS: inhibition of Notch1 binding to 293G-human DLL4 cells (competitor Notch1).

B1: DVD474 (bispecific antibody, human IgG1, kappa)
heavy: not shown
light: DIQMTQSPSSLSASVGDRVTITCRASQVIRRSLAWYQQKPGKAPKLLIYAASNLASGVPSRFSGSGSGTDFTLTISSLQPEDFATYYCQQSNTSPLTFGQGTKVEIKRTVAAPSVFIFPPDIQMTQSPSSLSASVGDRVTITCRASQDVSTAVAWYQQKPGKAPKLLIYSASFLYSGVPSRFSGSGSGTDFTLTISSLQPEDFATTYYCQQSYTGTVTFGQGTKVEIKRTVAAPSVFIFPPSDEQLKSGTASVVCLLNNFYPREAKVQWKVDNALQSGNSQESVTEQDSKDSTYSLSSTLTLSKADYEKHKVYACEVTHQGLSSPVTKSFNRGEC
notes: DVD-Ig; outer AB071 (VEGF), inner AB015 (DLL4); HC long, LC long linker; also called DVD474H; DVD474L
Broadly, the EC50 is the concentration that produces a half-maximal response. Low readings indicate greater potency, high ones weaker potency. In assay [1], B1 showed an EC50 of 0.57 nM.

B2: DVD498 (bispecific antibody, human IgG1, kappa)
heavy: not shown
light: DIQMTQSPSSLSASVGDRVTITCRASQVIRRSLAWYQQKPGKAPKLLIYAASNLASGVPSRFSGSGSGTDFTLTISSLQPEDFATYYCQQSNTSPLTFGQGTKVEIKRTVAAPSVFIFPPDIQMTQSSSYLSVSLGGRVTITCKASDHINNWLAWYQQKPGNAPRLLISGATSLETGVPSRFSGSGSGKDYTLSITSLQTEDVATYYCQQYWSIPLTFGAGTKLELKRTVAAPSVFIFPPSDEQLKSGTASVVCLLNNFYPREAKVQWKVDNALQSGNSQESVTEQDSKDSTYSLSSTLTLSKADYEKHKVYACEVTHQGLSSPVTKSFNRGEC
notes: DVD-Ig; outer AB071 (VEGF), inner AB072 (DLL4); HC long, LC long linker; also called DVD498H; DVD498L
In assay [1], B2 returned an EC50 of 0.45 nM.

B3: DVD518 (bispecific antibody, human IgG1, kappa, lambda)
heavy: not shown
light: DIQMTQSPSSLSASVGDRVTITCSASQDISNYLNWYQQKPGKAPKVLIYFTSSLHSGVPSRFSGSGSGTDFTLTISSLQPEDFATYYCQQYSTVPWTFGQGTKVEIKRTVAAPSVFIFPPQAVVTQESALTTSPGETVTLTCRSSTGAVTTSNYANWVQEKPDHLFTGLIGGTNNRAPGVPARFSGSLIGDKAALTITGAQTEDEAIYFCALWYSNHWVFGGGTKLTVLGQPKAAPSVTLFPPSSEELQANKATLVCLISDFYPGAVTVAWKADSSPVKAGVETTTPSKQSNNKYAASSYLSLTPEQWKSHRSYSCQVTHEGSTVEKTVAPTECS
notes: DVD-Ig; HC long, LC long linker; also called DVD518H; DVD518L
As for B3, the EC50 in assay [1] was 5.9 nM.

B4: DVD480 (bispecific antibody, human IgG1, kappa)
heavy: not shown
light: DIQMTQSPSSLSASVGDRVTITCRASQVIRRSLAWYQQKPGKAPKLLIYAASNLASGVPSRFSGSGSGTDFTLTISSLQPEDFATYYCQQSNTSPLTFGQGTKVEIKRTVAAPDIQMTQSPSSLSASVGDRVTITCRASQDVSTAVAWYQQKPGKAPKLLIYSASFLYSGVPSRFSGSGSGTDFTLTISSLQPEDFATTYYCQQSYTGTVTFGQGTKVEIKRTVAAPSVFIFPPSDEQLKSGTASVVCLLNNFYPREAKVQWKVDNALQSGNSQESVTEQDSKDSTYSLSSTLTLSKADYEKHKVYACEVTHQGLSSPVTKSFNRGEC
notes: DVD-Ig; outer AB071 (VEGF), inner AB015 (DLL4); HC long, LC short linker; also called DVD480H; DVD480L
Regarding B4, the EC50 in assay [2] is 0.6 nM.

B5: DVD528 (bispecific antibody, human IgG1, lambda)
heavy: not shown
light: DIQMTQSPSSLSASVGDRVTITCRASQVIRRSLAWYQQKPGKAPKLLIYAASNLASGVPSRFSGSGSGTDFTLTISSLQPEDFATYYCQQSNTSPLTFGQGTKVEIKRTVAAPQAVVTQESALTTSPGETVTLTCRSSTGAVTTSNYANWVQEKPDHLFTGLIGGTNNRAPGVPARFSGSLIGDKAALTITGAQTEDEAIYFCALWYSNHWVFGGGTKLTVLGQPKAAPSVTLFPPSSEELQANKATLVCLISDFYPGAVTVAWKADSSPVKAGVETTTPSKQSNNKYAASSYLSLTPEQWKSHRSYSCQVTHEGSTVEKTVAPTECS
notes: DVD-Ig; outer AB071 (VEGF), inner AB073 (DLL4); HC long, LC short linker; also called DVD528H; DVD528L
Take B5: in assay [2], it took 0.81 nM to reach a half-maximal effect (EC50).

B6: DVD452 (bispecific antibody, human IgG1, kappa, L234A L235A)
heavy: not shown
light: DIQMTQSPSSLSASVGDRVTITCRASQVIRRSLAWYQQKPGKAPKLLIYAASNLASGVPSRFSGSGSGTDFTLTISSLQPEDFATYYCQQSNTSPLTFGQGTKVEIKRTVAAPSVFIFPPDIVMTQSPDSLAVSLGERATISCRASESVDNYGISFMKWFQQKPGQPPKLLIYAASNQGSGVPDRFSGSGSGTDFTLTISSLQAEDVAVYYCQQSKEVPWTFGGGTKVEIKRTVAAPSVFIFPPSDEQLKSGTASVVCLLNNFYPREAKVQWKVDNALQSGNSQESVTEQDSKDSTYSLSSTLTLSKADYEKHKVYACEVTHQGLSSPVTKSFNRGEC
notes: DVD-Ig; outer AB071 (VEGF), inner AB069 (DLL4); HC long, LC long linker; also called DVD452H; DVD452L
Consider B6, for which, in assay [1], a half-maximal effect (EC50) was put at 0.34 nM.

B7: DVD470 (bispecific antibody, human IgG1, kappa)
heavy: not shown
light: DIQMTQSPSSLSASVGDRVTITCSASQDISNYLNWYQQKPGKAPKVLIYFTSSLHSGVPSRFSGSGSGTDFTLTISSLQPEDFATYYCQQYSTVPWTFGQGTKVEIKRTVAAPSVFIFPPDIQMTQSPSSLSASVGDRVTITCRASQDVSTAVAWYQQKPGKAPKLLIYSASFLYSGVPSRFSGSGSGTDFTLTISSLQPEDFATTYYCQQSYTGTVTFGQGTKVEIKRTVAAPSVFIFPPSDEQLKSGTASVVCLLNNFYPREAKVQWKVDNALQSGNSQESVTEQDSKDSTYSLSSTLTLSKADYEKHKVYACEVTHQGLSSPVTKSFNRGEC
notes: DVD-Ig; HC long, LC long linker; also called DVD470H; DVD470L
In assay [1], B7 returned an EC50 of 0.19 nM.

B8: DVD524 (bispecific antibody, human IgG1, lambda)
heavy: not shown
light: DIQMTQSPSSLSASVGDRVTITCSASQDISNYLNWYQQKPGKAPKVLIYFTSSLHSGVPSRFSGSGSGTDFTLTISSLQPEDFATYYCQQYSTVPWTFGQGTKVEIKRTVAAPQAVVTQESALTTSPGETVTLTCRSSTGAVTTSNYANWVQEKPDHLFTGLIGGTNNRAPGVPARFSGSLIGDKAALTITGAQTEDEAIYFCALWYSNHWVFGGGTKLTVLGQPKAAPSVTLFPPSSEELQANKATLVCLISDFYPGAVTVAWKADSSPVKAGVETTTPSKQSNNKYAASSYLSLTPEQWKSHRSYSCQVTHEGSTVEKTVAPTECS
notes: DVD-Ig; HC long, LC short linker; also called DVD524H; DVD524L
Molecule B8 had an EC50 in assay [2] of 0.22 nM.

B9: DVD500 (bispecific antibody, human IgG1, kappa)
heavy: not shown
light: DIQMTQSPSSLSASVGDRVTITCSASQDISNYLNWYQQKPGKAPKVLIYFTSSLHSGVPSRFSGSGSGTDFTLTISSLQPEDFATYYCQQYSTVPWTFGQGTKVEIKRTVAAPDIQMTQSSSYLSVSLGGRVTITCKASDHINNWLAWYQQKPGNAPRLLISGATSLETGVPSRFSGSGSGKDYTLSITSLQTEDVATYYCQQYWSIPLTFGAGTKLELKRTVAAPSVFIFPPSDEQLKSGTASVVCLLNNFYPREAKVQWKVDNALQSGNSQESVTEQDSKDSTYSLSSTLTLSKADYEKHKVYACEVTHQGLSSPVTKSFNRGEC
notes: DVD-Ig; HC long, LC short linker; also called DVD500H; DVD500L
Molecule B9 registered an EC50 in assay [2] of 0.57 nM.

B10: DVD476 (bispecific antibody, human IgG1, kappa)
heavy: not shown
light: DIQMTQSPSSLSASVGDRVTITCSASQDISNYLNWYQQKPGKAPKVLIYFTSSLHSGVPSRFSGSGSGTDFTLTISSLQPEDFATYYCQQYSTVPWTFGQGTKVEIKRTVAAPDIQMTQSPSSLSASVGDRVTITCRASQDVSTAVAWYQQKPGKAPKLLIYSASFLYSGVPSRFSGSGSGTDFTLTISSLQPEDFATTYYCQQSYTGTVTFGQGTKVEIKRTVAAPSVFIFPPSDEQLKSGTASVVCLLNNFYPREAKVQWKVDNALQSGNSQESVTEQDSKDSTYSLSSTLTLSKADYEKHKVYACEVTHQGLSSPVTKSFNRGEC
notes: DVD-Ig; HC long, LC short linker; also called DVD476H; DVD476L
In turn, B10 came in with an EC50 in assay [2] of 0.3 nM.

B11: DVD458 (bispecific antibody, human IgG1, kappa, L234A L235A)
heavy: not shown
light: DIQMTQSPSSLSASVGDRVTITCRASQVIRRSLAWYQQKPGKAPKLLIYAASNLASGVPSRFSGSGSGTDFTLTISSLQPEDFATYYCQQSNTSPLTFGQGTKVEIKRTVAAPDIVMTQSPDSLAVSLGERATISCRASESVDNYGISFMKWFQQKPGQPPKLLIYAASNQGSGVPDRFSGSGSGTDFTLTISSLQAEDVAVYYCQQSKEVPWTFGGGTKVEIKRTVAAPSVFIFPPSDEQLKSGTASVVCLLNNFYPREAKVQWKVDNALQSGNSQESVTEQDSKDSTYSLSSTLTLSKADYEKHKVYACEVTHQGLSSPVTKSFNRGEC
notes: DVD-Ig; outer AB071 (VEGF), inner AB069 (DLL4); HC long, LC short linker; also called DVD458H; DVD458L
In assay [2], B11 came in with an EC50 of 1.54 nM.

B12: DVD522 (bispecific antibody, human IgG1, kappa, lambda, L234A L235A)
heavy: not shown
light: DIQMTQSPSSLSASVGDRVTITCRASQVIRRSLAWYQQKPGKAPKLLIYAASNLASGVPSRFSGSGSGTDFTLTISSLQPEDFATYYCQQSNTSPLTFGQGTKVEIKRTVAAPSVFIFPPQAVVTQESALTTSPGETVTLTCRSSTGAVTTSNYANWVQEKPDHLFTGLIGGTNNRAPGVPARFSGSLIGDKAALTITGAQTEDEAIYFCALWYSNHWVFGGGTKLTVLGQPKAAPSVTLFPPSSEELQANKATLVCLISDFYPGAVTVAWKADSSPVKAGVETTTPSKQSNNKYAASSYLSLTPEQWKSHRSYSCQVTHEGSTVEKTVAPTECS
notes: DVD-Ig; outer AB071 (VEGF), inner AB073 (DLL4); HC long, LC long linker; also called DVD522H; DVD522L
As for B12, the EC50 in assay [1] came to 0.48 nM.

B13: DVD494 (bispecific antibody, human IgG1, kappa)
heavy: not shown
light: DIQMTQSPSSLSASVGDRVTITCSASQDISNYLNWYQQKPGKAPKVLIYFTSSLHSGVPSRFSGSGSGTDFTLTISSLQPEDFATYYCQQYSTVPWTFGQGTKVEIKRTVAAPSVFIFPPDIQMTQSSSYLSVSLGGRVTITCKASDHINNWLAWYQQKPGNAPRLLISGATSLETGVPSRFSGSGSGKDYTLSITSLQTEDVATYYCQQYWSIPLTFGAGTKLELKRTVAAPSVFIFPPSDEQLKSGTASVVCLLNNFYPREAKVQWKVDNALQSGNSQESVTEQDSKDSTYSLSSTLTLSKADYEKHKVYACEVTHQGLSSPVTKSFNRGEC
notes: DVD-Ig; HC long, LC long linker; also called DVD494H; DVD494L
In turn, B13 registered an EC50 in assay [1] of 39.5 nM.

B14: DVD485 (DLL4 (seq. 1) N-terminal / VEGF (AB071) C-terminal DVD-Ig, short HC linker, long LC linker) (bispecific antibody, human IgG1, kappa)
heavy: not shown
light: DIQMTQSPSSLSASVGDRVTITCRASQDVSTAVAWYQQKPGKAPKLLIYSASFLYSGVPSRFSGSGSGTDFTLTISSLQPEDFATTYYCQQSYTGTVTFGQGTKVEIKRTVAAPSVFIFPPDIQMTQSPSSLSASVGDRVTITCRASQVIRRSLAWYQQKPGKAPKLLIYAASNLASGVPSRFSGSGSGTDFTLTISSLQPEDFATYYCQQSNTSPLTFGQGTKVEIKRTVAAPSVFIFPPSDEQLKSGTASVVCLLNNFYPREAKVQWKVDNALQSGNSQESVTEQDSKDSTYSLSSTLTLSKADYEKHKVYACEVTHQGLSSPVTKSFNRGEC
notes: also called DVD485H/DVD485L
The IC50 is the concentration that gives 50% inhibition. A low value points to greater potency in that assay. As to B14, the “DVD-Ig Inhibition of sFlt1 (IC50, nM)” value in assay [3] worked out at 6.67 nM. Further, the results for the IC50 in assay [4] and in assay [5] were 3.44 nM and 6.3 nM, respectively.

For the origin of these results see patent publication US20100260668A1 (published 2010).
